The results in this text go back to article PMC12956587.

In this assay the target is WIN332 SOSIP Env trimer (HIV-1 strain BG505). The experiment in a line: SEC.

In the case of WIN332 SOSIP Env trimer (complex), the stoichiometry N was found to be 3.
